Test results taken from patent US20140120095A1 (Boehringer Ingelheim, published 2014).

Assays:
[1] = molecular target: T1, human DLL4 overexpressed on cells (human, UniProt Q9NR61 27-685); test: FACS titration on HEK293-hDLL4 cells, MCF
T1 construct: full length human DLL4 on CHO or HEK293 cells; also called CHO-hDLL4; CHO-hDII4
Method: In order to determine the cynomologus cross-reactivity of the VHHs, a FACS binding experiment is performed. Cynomolgus DII4 expressing HEK293 cells (transient or stable transfection) are used for a titration binding experiment of the VHHs. After a 30 minutes incubation on ice, all samples are washed and detection is performed by applying anti-c-myc˜Alexa647 (Santa Cruz Biotechnology, Santa Cruz, Calif., USA). Human and mouse DII4 overexpressing HEK293 cells are taken as reference. The mean MCF value is determined on the FACS Array and used for calculation of the EC₅₀ value (see FIG. 9 A-E).

[2] = molecular target: T2, recombinant human DLL4 (human, UniProt Q9NR61 25-522); test: binding ELISA, coated rhDLL4
T2 construct: also called rhDLL4; hDLL4
Method: In order to determine cross-reactivity to mouse DII4 a binding ELISA is performed. […] Wells are blocked with a casein solution (1% in PBS). VHHs are applied as dilution series and binding is detected using a mouse anti-myc (Roche) and an anti-mouse-AP conjugate (Sigma, St Louis, Mo., USA) (FIG. 7 A-H). As reference, binding to human DII4 is measured.

[3] = molecular target: T1, human DLL4 overexpressed on cells; test: competitive FMAT, hNotch1-Fc on CHO-hDLL4
[4] = molecular target: hDLL4.6 (human); test: Biacore, VHH on chip, 200 nM DLL4 sample injected
[5] = molecular target: mDLL4.11 (mouse); test: Biacore, VHH on chip, 200 nM DLL4 sample injected
[6] = molecular target: hDLL4.5 (human); test: Biacore, VHH on chip, 200 nM DLL4 sample injected
[7] = molecular target: hDLL4.3 (human); test: Biacore, VHH on chip, 200 nM DLL4 sample injected
[8] = molecular target: mDLL4.12 (mouse); test: Biacore, VHH on chip, 200 nM DLL4 sample injected
[9] = molecular target: T2, recombinant human DLL4; test: Biacore, VHH on chip, 200 nM DLL4 sample injected
[10] = molecular target: mDLL4.10 (mouse); test: Biacore, VHH on chip, 200 nM DLL4 sample injected
[11] = molecular target: T3, recombinant mouse DLL4 (mouse, UniProt Q9JI71 27-532); test: Biacore, VHH on chip, 200 nM DLL4 sample injected
T3 construct: extracellular domain; also called rmDLL4; mDLL4
T3 sequence (Q9JI71 27-532): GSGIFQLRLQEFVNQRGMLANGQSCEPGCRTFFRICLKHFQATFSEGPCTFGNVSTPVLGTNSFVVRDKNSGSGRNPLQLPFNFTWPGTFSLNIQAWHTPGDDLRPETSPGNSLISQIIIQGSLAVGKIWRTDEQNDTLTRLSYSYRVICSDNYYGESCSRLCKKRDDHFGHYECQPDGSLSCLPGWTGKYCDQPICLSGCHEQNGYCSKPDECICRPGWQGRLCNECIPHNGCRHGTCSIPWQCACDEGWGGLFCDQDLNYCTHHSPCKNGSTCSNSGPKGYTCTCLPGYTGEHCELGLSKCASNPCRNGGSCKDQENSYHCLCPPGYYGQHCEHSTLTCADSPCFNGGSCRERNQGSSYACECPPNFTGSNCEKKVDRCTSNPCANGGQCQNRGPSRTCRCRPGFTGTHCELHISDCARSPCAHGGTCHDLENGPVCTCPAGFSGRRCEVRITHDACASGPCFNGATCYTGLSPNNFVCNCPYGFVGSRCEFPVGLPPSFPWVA

[12] = molecular target: T2, recombinant human DLL4; test: SPR Biacore T100, hDLL4 on chip, VHH/Fab injected
[13] = molecular target: T4, mouse DLL4 overexpressed on cells (mouse, UniProt Q9JI71 27-686); test: competitive FMAT, hNotch1-Fc on CHO-mDLL4
T4 construct: whole, on cells; also called CHO-mDLL4; CHO-mDII4
T4 sequence (Q9JI71 27-686): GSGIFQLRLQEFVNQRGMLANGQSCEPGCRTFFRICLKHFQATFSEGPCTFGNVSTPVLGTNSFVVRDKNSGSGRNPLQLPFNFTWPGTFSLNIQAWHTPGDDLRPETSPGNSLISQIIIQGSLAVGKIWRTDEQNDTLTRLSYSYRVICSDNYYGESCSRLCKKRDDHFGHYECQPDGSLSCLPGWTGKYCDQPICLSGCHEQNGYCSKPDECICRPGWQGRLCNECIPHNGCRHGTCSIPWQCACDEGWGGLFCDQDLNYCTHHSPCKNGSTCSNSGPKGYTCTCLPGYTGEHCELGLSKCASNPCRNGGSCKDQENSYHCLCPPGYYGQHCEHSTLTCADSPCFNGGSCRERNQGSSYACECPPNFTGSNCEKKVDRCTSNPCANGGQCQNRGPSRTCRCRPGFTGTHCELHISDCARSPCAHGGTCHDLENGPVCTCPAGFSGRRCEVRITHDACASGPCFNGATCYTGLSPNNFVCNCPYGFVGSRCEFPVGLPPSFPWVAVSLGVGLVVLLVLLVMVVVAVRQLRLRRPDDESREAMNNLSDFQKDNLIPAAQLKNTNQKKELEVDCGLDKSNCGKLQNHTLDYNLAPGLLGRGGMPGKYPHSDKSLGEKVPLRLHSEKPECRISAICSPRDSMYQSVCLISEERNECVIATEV

[14] = molecular target: T2, recombinant human DLL4; test: Biacore off-rate, periplasmic extract
[15] = molecular target: T2, recombinant human DLL4; test: competition ELISA, biot-hDLL4 to coated hNotch1-Fc
Source text: Residual binding of biotinylated human DII4 is detected using horseradish peroxidase (HRP) conjugated extravidin (Sigma, St. Louis, Mo., USA) (FIG. 3 A-C). Human DII4 is biotinylated as described above.

[16] = molecular target: T5, recombinant human DLL4 (C-terminally His-tagged extracellular domain, R&D Systems) (human, UniProt Q9NR61 25-522, biotinylated in the competition ELISA); test: binding ELISA on recombinant human DLL4, OD 450 nm
T5 construct: also called rhDLL4; hDLL4

[17] = molecular target: T6, recombinant mouse DLL4 (C-terminally His-tagged extracellular domain, R&D Systems) (mouse, UniProt Q9JI71 27-532); test: binding ELISA on coated recombinant mouse DLL4 (Example 5.8, Example 7), OD 450 nm
T6 construct: extracellular domain; also called rmDLL4; mDLL4
T6 sequence (Q9JI71 27-532): as the sequence (Q9JI71 27-532) above

[18] = molecular target: T5, recombinant human DLL4 (C-terminally …); test: binding ELISA on coated recombinant human DLL4 (Example 5.8, Example 7), OD 450 nm
[19] = molecular target: T7, human Jagged-1 (Alexis) (human, UniProt P78504 34-1067, limits assumed); test: binding ELISA on coated human Jagged-1 (Example 5.8, Example 7), OD 405 nm
T7 construct: also called hJag-1; hJAG1

B1: DLLBII56A09 (VHH)
VHH: EVQLVESGGGLVQPGGSLRLSCAASGFTFDDYAIGWFRQAPGKEPEGISCISSSGGITYYADSVKGRFTTSRDNAKNTVYLQMNSLKPEDTAVYYCATPGIAACRGIHYTGQGTQVTVSS
notes: also called 56A9; DLLBII56A9
[1]
  EC50 (read off the curve): ~4 nM
[2]
  EC50: 3.6 nM
[3]
  IC50: 10.6 nM
[4]
  Binding (RU): 136 RU
  koff: 0.0011 s⁻¹
[5]
  Binding (RU): 132 RU
  koff: 0.0016 s⁻¹
[6]
  Binding (RU): 143 RU
  koff: 0.0012 s⁻¹
[7]
  Binding (RU): 125 RU
  koff: 0.00074 s⁻¹
[8]
  Binding (RU): 161 RU
  koff: 0.0013 s⁻¹
[9]
  Binding (RU): 281 RU
  koff: 0.00095 s⁻¹
[10]
  Binding (RU): 141 RU
  koff: 0.0011 s⁻¹
[11]
  Binding (RU): 389 RU
  koff: 0.0019 s⁻¹
[12]
  Kd: 5.6 nM
  koff: 0.00093 s⁻¹
  kon: 170000 M⁻¹ s⁻¹
[13]
  IC50: 15 nM
[14]
  koff: 0.0011 s⁻¹
[15]
  IC50: 4.9 nM

B2: DLLBII101G08 (VHH)
VHH: EVQLVESGGGLVQAGGSLRLSCAASGRTFSSYAMAWFRQAPGKEREFVAAIRWSGGTAYYADSVQGRFTISRDNAKNTVYLQMNSLKPEDTAVYYCANRAADTRLGPYEYDYWGQGTQVTVSS
notes: also called 101G8; DLLBII101G8
[1]
  EC50 (read off the curve): ~30 nM
[2]
  EC50: 8.9 nM
[3]
  IC50: 24.6 nM
[4]
  Binding (RU): 229 RU
  koff: 0.0022 s⁻¹
[5]
  Binding (RU): 210 RU
  koff: 0.00616 s⁻¹
[6]
  Binding (RU): 266 RU
  koff: 0.00219 s⁻¹
[7]
  Binding (RU): 198 RU
  koff: 0.00465 s⁻¹
[8]
  Binding (RU): 244 RU
  koff: 0.00452 s⁻¹
[9]
  Binding (RU): 373 RU
  koff: 0.002 s⁻¹
[10]
  Binding (RU): 189 RU
  koff: 0.00514 s⁻¹
[11]
  Binding (RU): 502 RU
  koff: 0.006 s⁻¹
[12]
  Kd: 52 nM
  koff: 0.0022 s⁻¹
  kon: 43000 M⁻¹ s⁻¹
[13]
  IC50: 92.1 nM
[14]
  koff: 0.0021 s⁻¹
[15]
  IC50: 9.5 nM

B3: DLLBII101G08 (VHH, not shown: small tags and cut ends)
VHH: EVQLVESGGGLVQAGGSLRLSCAASGRTFSSYAMAWFRQAPGKEREFVAAIRWSGGTAYYADSVQGRFTISRDNAKNTVYLQMNSLKPEDTAVYYCANRAADTRLGPYEYDYWGQGTQVTVSS
notes: parent VHH; also called 101G08 (wt); 101G8
[16]
  EC50 (read off the curve): ~4 nM

B4: DLLBII129B05 (VHH, not shown: small tags and cut ends)
VHH: EVQLVESGGGLVQAGGSLRLSCAASGRTFSSYAMAWYRQAPGKEREYVAAIRWSGGTAYYADSVQGRFTISRDNAKNTVYLQMNSLKPEDTAVYYCANRAPDTRLAPYEYDHWGQGTQVTVSS
[17]
  EC50 (read off the curve): ~0.8 nM
[16]
  EC50 (read off the curve): ~0.7 nM

B5: DLLBII129E11 (VHH, not shown: small tags and cut ends)
VHH: EVQLVESGGGLVQAGGSLRLSCAASGRTFSSYAMAWYRQAPGKEREYVAAIRWSGGTAYYADSVQGRFTISRDNAKNTVYLQMNSLKPEDTAVYYCANRAPDTRLRPYLYDYWGQGTQVTVSS
[17]
  EC50 (read off the curve): ~0.8 nM
[16]
  EC50 (read off the curve): ~0.7 nM

B6: DLLBII129D08 (VHH, not shown: small tags and cut ends)
VHH: EVQLVESGGGLVQAGGSLRLSCAASGRTFSSYAMAWYRQAPGKEREYVAAIRWSGGTAYYADSVQGRFTISRDNAKNTVYLQMNSLKPEDTAVYYCANRAPDTRLEPYLYDYWGQGTQVTVSS
[17]
  EC50 (read off the curve): ~0.8 nM
[16]
  EC50 (read off the curve): ~0.7 nM

B7: DLLBII115A05 (VHH)
VHH: EVQLVESGGGLVQPGGSLRLSCAASGFTFGSYDMSWVRRSPGKGPEWVSSINSGGGSTYYADFVKGRFTISRDNAKNTLYLQMNSLKPEDTAVYYCAADRYIRARQGDYWGAYEYDYWGQGTQVTVSS
notes: also called 115A5; DLLBII115A5
[1]
  EC50 (read off the curve): ~20 nM
[2]
  EC50: 5 nM
[3]
  IC50: 22 nM
[4]
  Binding (RU): 152 RU
  koff: 0.0041 s⁻¹
[5]
  Binding (RU): 121 RU
  koff: 0.0066 s⁻¹
[6]
  Binding (RU): 162 RU
  koff: 0.0042 s⁻¹
[7]
  Binding (RU): 137 RU
  koff: 0.0035 s⁻¹
[8]
  Binding (RU): 152 RU
  koff: 0.0031 s⁻¹
[9]
  Binding (RU): 324 RU
  koff: 0.0035 s⁻¹
[10]
  Binding (RU): 121 RU
  koff: 0.0038 s⁻¹
[11]
  Binding (RU): 344 RU
  koff: 0.0065 s⁻¹
[12]
  Kd: 25 nM
  koff: 0.0039 s⁻¹
  kon: 150000 M⁻¹ s⁻¹
[13]
  IC50: 43 nM
[14]
  koff: 0.0031 s⁻¹
[15]
  IC50: 9.1 nM

B8: DLLBII133G05 (VHH, not shown: small tags and cut ends)
VHH: EVQLVESGGGLVQPGGSLRLSCAASGFTFGSYDMSWVRRSPGKGPEWVSAINSGGGSTYYTDYVKGRFTISRDNAKNTLYLQMNSLKPEDTAVYYCAADRYIWARQGEYWGAYAYDYWGQGTQVTVSS
[18]
  EC50 (read off the curve): ~0.4 nM
[19]
  binding result: no binding (tested: log[M] -6.1 (about 8e-7 M))

B9: DLLBII133A09 (VHH, not shown: small tags and cut ends)
VHH: EVQLVESGGGLVQPGGSLRLSCAASGFTFGSYDMSWVRRSPGKGPEWVSAINSGGGSTYYADYVKGRFTISRDNAKNTLYLQMNSLKPEDTAVYYCAADRYIWARQGEYWGAYAYDYWGQGTQVTVSS
[18]
  EC50 (read off the curve): ~0.6 nM
[19]
  binding result: no binding (tested: log[M] -6.1 (about 8e-7 M))

B10: DLLBII136C07 (VHH, not shown: small tags and cut ends)
VHH: EVQLVESGGGLVQPGGSLRLSCAASGFTFGSYDMSWVRRSPGKGPEWVSSINSGGGSTYYADYVKGRFTISRDNAKNTLYLQMNSLKPEDTAVYYCAADRYIWARQGEYWGAYEYDYWGQGTQVTVSS
[18]
  EC50 (read off the curve): ~0.6 nM
[19]
  binding result: no binding (tested: log[M] -6.1 (about 8e-7 M))

B11: DLLBII015 (VHH, not shown: small tags and cut ends)
VHH: EVQLVESGGGLVQPGGSLRLSCAASGFTIGSYDMSWVRRSPGKGPEWVSAINSGGGSTYYADYVKGRFTISRDNAKNTLYLQMNSLKPEDTAVYYCAADRYIWARQGEYWGAYAYDYWGQGTQVTVSS
[18]
  EC50 (read off the curve): ~0.6 nM
[19]
  binding result: no binding (tested: log[M] -6.1 (about 8e-7 M))
